From publication PMC3987903

Biological target: GST-LT-Ag (HPD to AAA) mutant (JC virus (JCV)) (UniProt P03072)
Assay: pull-down

Chain of human heat shock protein Hsp70 (P0DMV8 whole entry): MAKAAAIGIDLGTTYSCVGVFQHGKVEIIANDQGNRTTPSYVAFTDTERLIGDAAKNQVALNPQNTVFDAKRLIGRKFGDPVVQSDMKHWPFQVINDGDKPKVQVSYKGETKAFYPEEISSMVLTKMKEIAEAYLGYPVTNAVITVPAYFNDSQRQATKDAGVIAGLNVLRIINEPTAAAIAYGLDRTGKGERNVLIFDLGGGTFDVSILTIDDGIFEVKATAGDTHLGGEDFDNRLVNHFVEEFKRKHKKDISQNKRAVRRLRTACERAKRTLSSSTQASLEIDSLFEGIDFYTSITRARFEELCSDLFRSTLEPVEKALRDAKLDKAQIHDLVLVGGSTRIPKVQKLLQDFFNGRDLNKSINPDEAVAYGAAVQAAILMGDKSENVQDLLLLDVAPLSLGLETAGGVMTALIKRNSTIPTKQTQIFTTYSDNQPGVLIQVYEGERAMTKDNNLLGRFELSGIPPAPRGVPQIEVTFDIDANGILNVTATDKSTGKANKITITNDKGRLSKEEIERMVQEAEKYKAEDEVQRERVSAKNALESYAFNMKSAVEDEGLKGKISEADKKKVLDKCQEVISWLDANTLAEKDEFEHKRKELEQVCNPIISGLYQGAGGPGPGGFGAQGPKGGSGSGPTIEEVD

Substance: human heat shock protein Hsp70 (from UniProt P0DMV8 1-641) (natural protein)
- reduction of the interaction against WT: > 50%
